From publication PMC6294517

Target: T1, SSBP1 (single-stranded DNA-binding protein 1, mitochondrial) (UniProt Q04837 17-148)
T1 sequence: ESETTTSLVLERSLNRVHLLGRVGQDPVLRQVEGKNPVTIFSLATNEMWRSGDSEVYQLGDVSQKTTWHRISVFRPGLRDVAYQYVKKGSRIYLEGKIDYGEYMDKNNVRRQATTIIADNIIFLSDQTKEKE
Test: fluorescence anisotropy

B1: 5x 6mA fluorescent probe (PG491/PG493) (dsDNA)
DNA 1: TATTTAACCTAAATTTCTATAAGATTATTAGTATAAAAGGG
DNA 2: CCCTTTTATACTAATAATCTTATAGAAATTTAGGTTAAATA
modifications: N6-methyldeoxyadenosine at strand 1 positions 19, 24, 27, 30, 33
B1: binds.
